B1: mouse PATZ1 BTB domain (residues 12-166) (domain or fragment)
chain: SGCYTYQVSRHSTEMLHNLNQQRKNGGRFCDVLLRVGDESFPAHRAVLAACSEYFESVFSAQLGDGGAADGGPADVGGAAAAPGGGAGGSRELEMHTISSKVFGDILDFAYTSRIVVRLESFPELMTAAKFLLMRSVIEICQEVIKQSNVQILVP

Columns and labels:
[1] = molecular target: zebrafish PATZ1 BTB domain (residues 1-135) (zebrafish (Danio rerio)); assay: SEC
SEC = molecular target: the molecule itself; assay: SEC

Molecule | stoichiometry N [1] | stoichiometry N (SEC)
zebrafish PATZ1 BTB domain (residues 1-135) (domain or fragment) | 2 | 
B1 |  | 2
